In article PMC10352137, “Readout of histone methylation by Trim24 locally restricts chromatin opening by p53” (Nature Structural & Molecular Biology, 2023):

Biological target: T1, Flag-tagged TRIM24 N-terminal domain (amino acids 1-473) (mouse, UniProt Q64127 1-473)
T1 construct: TRIM24, mouse, N-terminal domain, amino acids 1-473; the recombinant constructs are numbered to residue 1051; also called amino-terminal region of the Trim24 protein; not shown: Flag, N-terminal, kept
T1 sequence (looked up): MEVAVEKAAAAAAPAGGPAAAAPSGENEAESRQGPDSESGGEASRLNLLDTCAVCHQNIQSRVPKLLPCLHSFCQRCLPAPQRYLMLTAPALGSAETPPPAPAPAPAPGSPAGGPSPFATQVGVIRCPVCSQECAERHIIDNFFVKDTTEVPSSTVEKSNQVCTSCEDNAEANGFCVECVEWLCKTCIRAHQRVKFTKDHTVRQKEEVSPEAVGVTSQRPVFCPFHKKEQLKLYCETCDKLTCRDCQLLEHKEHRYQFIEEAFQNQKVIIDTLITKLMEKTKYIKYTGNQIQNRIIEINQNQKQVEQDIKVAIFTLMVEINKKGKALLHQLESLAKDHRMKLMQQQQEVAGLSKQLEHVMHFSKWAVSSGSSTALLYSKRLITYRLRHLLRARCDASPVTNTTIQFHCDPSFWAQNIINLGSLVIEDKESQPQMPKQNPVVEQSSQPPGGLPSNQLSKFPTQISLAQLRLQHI
Assay: pull-down; Flag-tagged TRIM24 domains (0.25 nmol) mixed with Strep-tagged p53 in equimolar ratios, anti-Flag or Strep-Tactin beads, 2 h at 4 °C, 50 mM HEPES pH 8.0, 150 mM NaCl; stained gel
Settings: both partners purified

binding result: binds
B1: Strep-tagged mouse full-length p53 (natural protein, UniProt P02340 1-390, looked up)
chain: MTAMEESQSDISLELPLSQETFSGLWKLLPPEDILPSPHCMDDLLLPQDVEEFFEGPSEALRVSGAPAAQDPVTETPGPVAPAPATPWPLSSFVPSQKTYQGNYGFHLGFLQSGTAKSVMCTYSPPLNKLFCQLAKTCPVQLWVSATPPAGSRVRAMAIYKKSQHMTEVVRRCPHHERCSDGDGLAPPQHLIRVEGNLYPEYLEDRQTFRHSVVVPYEPPEAGSEYTTIHYKYMCNSSCMGGMNRRPILTIITLEDSSGNLLGRDSFEVRVCACPGRDRRTEEENFRKKEVLCPELPPGSAKRALPTCTSASPPQKKKPLDGEYFTLKIRGRKRFEMFRELNEALELKDAHATEESGDSRAHSSYLKTKKGQSTSRHKKTMVKKVGPDSD
notes: p53, mouse, full length; also called purified p53; Strep-tagged p53 full-length protein; source: Sf9 (Bac-to-Bac), purified (Strep-Tactin, heparin ion exchange, Superose 6 SEC); not shown: Strep-tag, N-terminal, kept
